Data published in US6537965B1, “Amino-terminal modified parathyroid hormone (PTH) analogs” (The General Hospital Corporation, priority 1998, dated 2003).
“Also recorded” adds a separate entry of the source. Ends that are not written are not given here.

Key:
[1] = molecular target: T1, hPTH-1 receptors (Homo sapiens, UniProt Q03431); test: radioligand binding to HKRK C53 cells; design: expressed in transfected cells; settings: average level
T1 sequence (Q03431 27-593): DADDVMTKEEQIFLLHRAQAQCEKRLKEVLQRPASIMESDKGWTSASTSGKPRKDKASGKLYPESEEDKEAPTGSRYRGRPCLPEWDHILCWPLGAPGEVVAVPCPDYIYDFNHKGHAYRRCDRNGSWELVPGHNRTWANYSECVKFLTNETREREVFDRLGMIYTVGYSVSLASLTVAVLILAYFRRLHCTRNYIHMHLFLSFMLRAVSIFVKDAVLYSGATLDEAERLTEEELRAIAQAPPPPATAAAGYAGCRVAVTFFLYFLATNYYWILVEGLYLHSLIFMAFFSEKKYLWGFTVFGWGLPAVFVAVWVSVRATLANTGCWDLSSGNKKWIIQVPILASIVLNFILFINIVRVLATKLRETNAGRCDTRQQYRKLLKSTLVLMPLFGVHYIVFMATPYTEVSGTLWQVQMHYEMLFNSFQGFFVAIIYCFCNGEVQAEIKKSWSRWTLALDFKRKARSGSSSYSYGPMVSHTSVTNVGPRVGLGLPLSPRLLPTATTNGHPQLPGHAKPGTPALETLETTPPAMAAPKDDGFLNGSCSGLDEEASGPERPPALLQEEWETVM
Text: (§1) The following cell lines were used in these studies. HKRK C53 subclones of LLC-PKI porcine renal epithelial cells which stably express human PTH-1 receptors (150,000 receptors/cell). SaOS-2 cells are transformed human osteosarcoma cells which express relatively few (10,000-20,000 per cell) human PTH-1 receptors. HPR2-7 cells are subclones of LLC-PK1 which express approximately 250,000 recombinant human PTH-2 receptors per cell. HKRK-B7 cells are subclones of LLC-PK which stably express approximately 1 million hPTH-1 receptors per cell. HPR2-22 cells are subclones of LLC-PK1 which express 1.5 million recombinant hPTH-2 receptors per cell. The HPR2-27 and HPR2-22 cell lines were created in the same fashion as the HKRK cells but employing instead type 2 PTH receptor cDNA using the transfection technique of (Bringhurst, F. R., et al., Endocrinology 132(5):2090-2098 (1993); Guo, J., et al., Endocrinology 136(9):3884-3891 (1995)).
(§2) Radioligand competition binding assays were performed at 2-8° C. for 6 hr using ^125I-[Nle^8,21]rat PTH-(1-34) (100,000 cpm/well) in the presence or absence of non-radioactive hPTH-(1-34) analogs. Cell layers were washed three times before solubilization for determination of cell-associated radioactivity.

[2] = molecular target: T1, hPTH-1 receptors; test: IP3 formation in HKRK C53 cells; assay type: cell-based; design: expressed in transfected cells; settings: average level
Text: as §1
PLC was activated by PTH agonists in the presence of 30 mM LiCl at 37° C. for 30 min after 16 hr of labeling with [^3H]myo-inositol (3uCi/ml) in serum-free medium containing 0.1% bovine serum albumin. The reactions were stopped by rapid aspiration and addition of cold 5% TCA. Water-soluble radiolabeled inositol trisphosphate (IP3) was isolated after ether extraction by ion-exchange chromatography (Guo, J., et al., Endocrinology 136(9):3884-3891 (1995)). […]

[3] = molecular target: T2, hPTH-2 receptors (Homo sapiens, UniProt P49190); test: cAMP measurements in clonal LLC-PK1 cells (HPR2-7); assay type: cell-based; settings: HPR2-7 cells; average level
T2 construct: expressed in transfected cells
T2 sequence (P49190 25-550): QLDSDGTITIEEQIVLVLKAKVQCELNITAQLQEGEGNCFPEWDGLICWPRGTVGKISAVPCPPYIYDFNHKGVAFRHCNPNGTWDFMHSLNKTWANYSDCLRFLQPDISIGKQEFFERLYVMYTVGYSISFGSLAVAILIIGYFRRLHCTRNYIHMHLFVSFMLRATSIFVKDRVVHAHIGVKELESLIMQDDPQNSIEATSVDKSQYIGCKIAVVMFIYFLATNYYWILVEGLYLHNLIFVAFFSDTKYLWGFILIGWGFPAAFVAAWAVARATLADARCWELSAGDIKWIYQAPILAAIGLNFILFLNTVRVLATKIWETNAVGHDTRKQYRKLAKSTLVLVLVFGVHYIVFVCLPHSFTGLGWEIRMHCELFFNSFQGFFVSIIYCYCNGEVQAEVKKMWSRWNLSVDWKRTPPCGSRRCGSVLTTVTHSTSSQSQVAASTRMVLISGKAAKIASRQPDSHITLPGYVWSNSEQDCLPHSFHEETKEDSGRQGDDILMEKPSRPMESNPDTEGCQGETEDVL
Text: as §1, with “HKRK-B7 cells are subclones of LLC-PK which stably express approximately 1 million hPTH-1 receptors per cell. HPR2-22 cells are subclones of LLC-PK1 which express 1.5 million recombinant hPTH-2 receptors per cell.” left out
(§3) Intracellular cAMP accumulation, PLC activation and PTHR binding affinity were measured as previously reported (Bringhurst, F. R., et al., Endocrinology 132(5):2090-2098 (1993); Guo, J., et al., Endocrinology 136(9):3884-3891 (1995)). Intracellular cAMP accumulation was measured in extracts of cells that were exposed to human PTH peptides in the presence of isobutylmethyxanthine (IBMX, 1 mM) at 37° C. for 15 min. After terminating the reactions by aspiration and freezing in liquid nitrogen, cell monolayers were extracted with 50 mM HCl and cAMP was measured using a radioimmunoassay kit (Dupont-New England Nuclear, Boston, Mass.).

[4] = molecular target: T1, hPTH-1 receptors; test: phospholipase C (PLC) activity in HKRK-B7 cells; assay type: cell-based; design: expressed in transfected cells; settings: about 1 million hPTH-1 receptors per cell, 1000 nM (FIG. 4)
Text: as §1
(§4) PLC was activated by PTH agonists in the presence of 30 mM LiCl at 37° C. for 30 min after 16 hr of labeling with [^3H]myo-inositol (3uCi/ml) in serum-free medium containing 0.1% bovine serum albumin. The reactions were stopped by rapid aspiration and addition of cold 5% TCA. Water-soluble radiolabeled inositol trisphosphate (IP3) was isolated after ether extraction by ion-exchange chromatography (Guo, J., et al., Endocrinology 136(9):3884-3891 (1995)). In experiments involving HEK 293 cells, cells previously transfected with human PTHR cDNA (in the pcDNA1 expression vector HKRK) using Lipofectamine (Gibco BRL) were labeled with [^3H]myo-inositol and assayed as described above, except that total water-soluble [^3H]inositol polyphosphates were collected as a single fraction from the ion-exchange columns.

[5] = molecular target: T1, hPTH-1 receptors; test: cAMP accumulation (adenylyl cyclase activation) in HKRK C53 cells; assay type: cell-based; design: expressed in transfected cells; settings: HKRK C53 cells
Text: as §1, with “HKRK-B7 cells are subclones of LLC-PK which stably express approximately 1 million hPTH-1 receptors per cell. HPR2-22 cells are subclones of LLC-PK1 which express 1.5 million recombinant hPTH-2 receptors per cell.” left out
as §3

[6] = molecular target: T2, hPTH-2 receptors; test: radioligand competition binding to HPR2-7 cells; settings: average level
Method: as §2

[7] = molecular target: T2, hPTH-2 receptors; test: cAMP accumulation in HPR2-22 cells; assay type: cell-based; settings: average level
Text: as §1, with “The HPR2-27 and HPR2-22 cell lines were created in the same fashion as the HKRK cells but employing instead type 2 PTH receptor cDNA using the transfection technique of (Bringhurst, F. R., et al., Endocrinology 132(5):2090-2098 (1993); Guo, J., et al., Endocrinology 136(9):3884-3891 (1995)).” left out
as §3

[8] = molecular target: T1, hPTH-1 receptors; test: cAMP accumulation in HKRK B28 cells; assay type: cell-based; design: expressed in transfected cells; settings: average level
Method: as §3

[9] = molecular target: T1, hPTH-1 receptors; test: radioligand competition binding to HKRK B28 cells; design: expressed in transfected cells
Method: as §2

[10] = molecular target: T1, hPTH-1 receptors; test: cAMP measurements in SaOS-2 cells; assay type: cell-based; design: expressed in transfected cells; settings: SaOS-2 cells, 10,000-20,000 human PTH-1 receptors per cell; up to 1 uM (FIG. 2)
Text: as §1, §3

[11] = molecular target: T1, hPTH-1 receptors; test: AC activation in HKRK B7 cells; assay type: cell-based; design: expressed in transfected cells; settings: HKRK B7 cells (large number of human PTH-1 receptors)
Text: as §1, §3

[12] = molecular target: T2, hPTH-2 receptors; test: phospholipase C activation in HPR2-22 cells; assay type: cell-based; settings: 1.5 million hPTH-2 receptors per cell, 1,000 nM (FIG. 5)
Text: as §1, §4

[13] = molecular target: T1, hPTH-1 receptors; test: PLC activation in HEK-293 cells transiently transfected with human PTHR cDNA; assay type: cell-based; design: expressed in transfected cells; host or cells: HEK-293 human embryonic kidney cells, transient transfection with Lipofectamine; settings: HEK-293 cells transiently transfected with human PTHR cDNA (data not shown)
Method: as §4

[14] = molecular target: T3, human PTHRs (Homo sapiens, UniProt Q03431); test: PLC activation in COS-7 cells expressing human PTHRs; assay type: cell-based; settings: up to 1000 nM
T3 sequence (Q03431 27-593): T1 sequence (Q03431 27-593)
Method: (§5) All cells were maintained under 5% CO2 in air in Dulbecco's modified […] containing 7% fetal bovine serum (FBS) and 1% penicillin/streptomycin (GIBCO-BRL, Grand Island, N.Y.). Cells were seeded into 24-well plates two days before assay at a suitable cell density (approximately 2-2.5×10^5 cells/well). DNA transfections in COS/HEK cells were performed 24 hr after plating and inositol radiolabel was added 24 hr thereafter (see below). Cell transfections were performed as previously described (Gardella, T. J., et al., Endocrinology 132(5):2024-2030 (1993)).
as §4

[15] = molecular target: T4, rat PTHRs (Rattus norvegicus, UniProt P25961); test: PLC activation in COS-7 cells expressing rat PTHRs; assay type: cell-based; settings: up to 1000 nM
T4 construct: expressed in transfected cells; host or cells: COS-7 cells
T4 sequence (P25961 27-591): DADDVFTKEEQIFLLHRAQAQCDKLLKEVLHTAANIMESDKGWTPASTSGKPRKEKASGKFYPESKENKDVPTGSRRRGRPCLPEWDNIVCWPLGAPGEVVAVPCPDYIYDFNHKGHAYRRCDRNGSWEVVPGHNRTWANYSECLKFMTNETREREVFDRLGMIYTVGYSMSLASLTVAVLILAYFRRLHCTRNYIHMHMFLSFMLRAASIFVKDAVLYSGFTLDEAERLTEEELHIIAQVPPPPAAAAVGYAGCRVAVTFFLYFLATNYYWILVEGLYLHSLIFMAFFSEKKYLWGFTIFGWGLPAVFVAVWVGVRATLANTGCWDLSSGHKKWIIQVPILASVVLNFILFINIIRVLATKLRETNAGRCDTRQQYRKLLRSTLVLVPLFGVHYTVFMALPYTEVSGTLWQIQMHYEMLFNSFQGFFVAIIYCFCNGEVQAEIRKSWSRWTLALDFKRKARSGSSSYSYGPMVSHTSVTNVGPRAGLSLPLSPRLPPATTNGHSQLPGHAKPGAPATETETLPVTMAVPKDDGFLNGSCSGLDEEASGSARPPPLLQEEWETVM
Method: as §5, §4

Compound | binding in the presence of maximal concentrations of peptide [1] [cpm/well] | IP3 formation in the presence of maximal concentrations of peptide [2] [cpm/well] | cAMP accumulation in the presence of maximal concentrations of peptide [3] [pmoles/well/15 min] | activation of PLC [4] | cAMP accumulation in the presence of maximal concentrations of peptide ([5]; average level) [pmoles/well/15 min] | binding in the presence of maximal concentrations of peptide [6] [cpm/well] | cAMP accumulation in the presence of maximal concentrations of peptide [7] [pmoles/well/15 min] | cAMP accumulation in the presence of maximal concentrations of peptide [8] [pmoles/well/15 min] | binding in the presence of maximal concentrations of peptide ([9]; HKRK B28 cells, average level) | cyclase (cAMP) activity compared with control hPTH(1-34) [10] | activation of AC compared with hPTH-(1-34) [11] | activation of phospholipase C [12] | activation of PLC [13] | activation of PLC ([4]; listed as Human PTH(2-34)) | cyclic AMP accumulation, efficacy compared with native hPTH(1-34)NH2 ([5]; about 150,000 hPTH-1 receptors per cell, 10^-9M and 10^-7M peptide (FIG. 1)) | competitive displacement of 125I-[Nle8,21]rPTH(1-34) radioligand binding ([9]; HKRK B28 cells, 280,000 human PTH-1 receptors/cell (FIG. 6)) | activation of PLC [14] | activation of PLC [15]
CC[C@H](C)[C@H](NC(=O)[C@H](CCC(=O)O)NC(=O)[C@H](CO)NC(=O)[C@@H](NC(=O)[C@@H](N)CO)C(C)C)C(=O)N[C@@H](CCC(N)=O)C(=O)N[C@@H](CC(C)C)C(=O)N[C@@H](CCSC)C(=O)N[C@@H](Cc1c[nH]cn1)C(=O)N[C@@H](CC(N)=O)C(=O)N[C@@H](CC(C)C)C(=O)NCC(=O)N[C@@H](CCCCN)C(=O)N[C@@H](Cc1c[nH]cn1)C(=O)N[C@@H](CC(C)C)C(=O)N[C@@H](CC(N)=O)C(=O)N[C@@H](CO)C(=O)N[C@@H](CCSC)C(=O)N[C@@H](CCC(=O)O)C(=O)N[C@@H](CCCNC(=N)N)C(=O)N[C@H](C(=O)N[C@@H](CCC(=O)O)C(=O)N[C@@H](Cc1c[nH]c2ccccc12)C(=O)N[C@@H](CC(C)C)C(=O)N[C@@H](CCCNC(=N)N)C(=O)N[C@@H](CCCCN)C(=O)N[C@@H](CCCCN)C(=O)N[C@@H](CC(C)C)C(=O)N[C@@H](CCC(N)=O)C(=O)N[C@@H](CC(=O)O)C(=O)N[C@H](C(=O)N[C@@H](Cc1c[nH]cn1)C(=O)N[C@@H](CC(N)=O)C(=O)N[C@@H](Cc1ccccc1)C(N)=O)C(C)C)C(C)C [hPTH(1-34)NH2] | 956±135 | 1908±251 | 133±14 | fill agonists | 207±37 | 4541±386 | 286±8 | 337±55 | 16,137±919 cpm/well | – | – | – | – | – | – | – | – | –
hPTH(2-34): N-truncated human PTH peptide, residues 2-34 (VSEIQLMHNLGKHLNSMERVEWLRKKLQDVHNF) | – | – | – | did not elicit PLC activity | – | – | – | – | – | very weak agonists | comparable in magnitude and sensitivity to that of hPTH-(1-34); also recorded: approximately equipotent | only a partial agonist | inability | inactive | similarly reduced activity | binds as well | – | –
hPTH-(3-34): N-truncated human PTH peptide, residues 3-34 (SEIQLMHNLGKHLNSMERVEWLRKKLQDVHNF-NH2; UniProt P01270 34-65, looked up, fragment) | – | – | – | did not activate PLC | – | – | – | – | – | – | – | – | – | – | – | – | did not activate PLC | did not activate PLC
